Assay results: the DeepSol protein solubility set

Assay: soluble on expression in E. coli; label from the status in PepcDB or PDB records

| Sequence | soluble on expression in E. coli |
| --- | --- |
| MGNQQCNWYGTLYPLCVTTTNGWGWEDQRSCIARSTCAAQPAPFGIVGSG | soluble |
| GPGSMEREQLISSASQPRRTVQSPARWADSSLNEIPETPPESGGAGGKLCGRMSDCIRALQVSIQPIITVVSSGNGSRRNNGGGPTVTEPLVAGRMGEREASSPGRNSFNPPRTRSGRESQPQGTISAVSGPEQHSAEKAPASPITVAGEQRMSASRPASGLASVPATGAEGLAVDHLAPGSGGVPEASTNDIIRAVENDRGMLHTTEQLSAVLERLAEYLPIRVEVELDERGPGGDTSSNCFLHHLCLQILGPVRTTPHSALLGLLEDILLEDCVPTSLRISSIHFADVSFSVEPAPGMQSTEEANNVVSFDALPIFGFTTTRVASGDVAENEKVKKECTERFCAFAKNMLECYSHTTSVRLTRCCFTPSDLGRWLKLPLLQLRRLYFEKCPLTAAHLDALIRLARATSRQSGRGPAFQRLEELQLSGSLTEESVAAVLSYFSDELLDGEFALVSLRLPSLWLRVAQSHPILERQPSLIVTST | not soluble |
| MSLVWKLLGGSKKEFVTPYASLLPDGHTLKEYSDSLVKKTIKAKELGFKAAKLEICIKGPYSHNNLQIEDDREFANMVKLCRKAVGNDMILMADVAYAWPDWKTALIALNMVENEDLFFIETPLPIEDLKGSKKLAEHSKTRIATGEMLQTRFECFETIEKGGIDVIQPDVGRVGGLTEAKRVCDYAEDNGILVVPHCWKSAIGIAASAHLSATTNMCPYIEFLPKELAESQLRKDLVLKELDVVDGQIPLPQQPGLGIEINDDKLKEYGVEGHHHHHH | not soluble |
| MAHHHHHHMSRMPSTAARSQPYAFGPEGVMLDGGASEGRQNSVEALLAYCAARVAENPSWRTASWQQAGASNASAFRVPVSPRYLANASYAATGSPLCLRAGRIYLTDARIRAGIAEFQAAGLTVLPLTDDVLSRPSSRASKATVRVVPAMAVLLNGAWIATHFFHLVTDALEALRSAYQTWQDGVLLRIPTQTVLLHQPESNWMDRRGDTHGKMELSAALANAFSSPELARGSPYNSSFLFRSQSRHCAELEANATATMASPPPPRRQSPATVSTLCFCDGLLVTTHRLPVLERDILYGIQDWAARQFRASPYGVNRSVQEMERLRLQHALLSSTSTLWSIGTLTAPALSLSYKPRALFVHRTSRVIANASRYAGWMRAAGFRVEEVYLEKHTAAQQYHLGRYADIVVGMHGLGIGHAMWMERSPPRCRTVIEFRPWVIASMPTQPILILEGAMHYHFVTIPPIDVRFGPSVAHPAEERELLLSSARMVNAFRYPSFTDQIAIYDDERVKGVIADVRQHLERCLPP | not soluble |
| MHYCDLDIAECDGVYPPSEDSFLIIEYASCSGKAIEIGCGTGIVSICFLKRGCDIEAVDISDLAVECAKDNASRNGLTLKVYRSDLFSGVSGTYDTILFNAPYIPVEGEDASWSGGRNLEVVSRFLGQAREHLSASGQIYIVLSDLTDNEGMFRMMGYDYFIIKKISFEFEAIVLYKLTLKALEHHHHHH | soluble |
| MKVTVIGCYGGFPAANEATSGYLFQSGDYSLLVDCGSAVLSKLFGYVPAEKLDAVVLSHYHHDHIADIGPLQFAKQVGSFLGKGEHTLPIYGHDADIEQFQKLTYKTHTKGIAYQPDQPLTAGPFTITFLKTIHPVTCYAMRITDGSHTVVYTADSSYQDSFIPFSKDADLLISECNFYADQDGTSAGHMNSLEAGRIAKEAGAGELLLTHLPHFGVHDNLRKEAKTVFNGEVNIAKSGFVWEG | soluble |
| MGSDKIHHHHHHMNKRNLLIAIPALCSGYLHGQTQPASPNVIYILMDDLGYGDIGCFGQDKIETPHIDRLCSEGIKLTQHYSGSPVSAPARCVLMTGMHSGHAQIRFNNELAERGAVNNYDSVYVHKELEGQFPLQANTMTIGRMMQQAGYTTGCFGKWGLGYPGSEGTPNKQGFDRFYGYNCQRQSHTYYPPFLYNDEERVYLSNKVTDPHRSPLDKGADPNDPASYAKYTQKEYANDLIFDELMGFVDANKRKPFFLMWTTPLPHVSLQAPERWVQHYVKKFGDEKPYTGQAGYLPCRYPHATYAAMISYFDEQIGQLIEKLKAEHLYENTLIVFTSDNGPTFNGGSDSPWFNSGGLFNSAYGWGKCFLHEGGIRVPAIITWPGKIKPGTQSDHICAFQDVMPTLAELAGITCPPTDGISFLPTLLGKKGKQKEHTYLYWEYPDPRIGNKAIRMGKWKGIITDIRKGNTQMQLYNLETDIREEHDVAAQHPDIVKRFERLMKEARNGPDF | not soluble |
| MRTILIDWFSDAVREYIFRNEAVHLAVSLVDRALPMFNINKMRFQLVGITSMRIAVKYEEIFPPILSNTRHSFDGAILYWKVRLHRRNAHTILDRIMLCTENELYKKDAECCQTPRAVADRFSFSTLPPI | not soluble |
| SNQLQQLQNPGESPPVHPFVAPLSYLLGTWRGQGEGEYPTIPSFRYGEEIRFSHSGKPVIAYTQKTWKLESGAPMHAESGYFRPRPDGSIEVVIAQSTGLVEVQKGTYNVDEQSIKLKSDLVGNASKVKEISREFELVDGKLSYVVRMSTTTNPLQPHLKAILDKL | soluble |
| MPGIRGPSEYSQEPPRHPSLKVNAKEPFNAEPPRSALVSSYVTPVDLFYKRNHGPIPIVDHLQSYSVTLTGLIQNPRKLFIKDIRSLPKYNVTATLQCAGNRRTAMSKVRNVRGVGWDVSAIGNAVWGGAKLADVLELVGIPKLTASTNLGARHVEFVSVDRCKEENGGPYKASITLSQATNPEADVLLAYEMNGETLNRDHGFPLRVVVPGVIGARSVKWLDSINVIAEESQGFFMQKDYKMFPPSVNWDNINWSSRRPQMDFPVQSAICSVEDVQMVKPGKVSIKGYAVSGGGRGIERVDISLDGGKNWVEASRTQEPGKQYISEHSSSDKWAWVLFEATIDVSQTTEVIAKAVDSAANVQPENVESVWNLRGVLNTSWHRVLLRLGHSNL | soluble |
| MPSVESFELDHNAVVAPYVRHCGVHKVGTDGVVNKFDIRFCQPNKQAMKPDTIHTLEHLLAFTIRSHAEKYDHFDIIDISPMGCQTGYYLVVSGETTSAEIVDLLEDTMKEAVEITEIPAANEKQCGQAKLHDLEGAKRLMRFWLSQDKEELLKVFG | soluble |
| MANELATEGASGVDAPRIGPRLKAARQAQRLTLDDLAASCGITKGYLSKIERDHASASVATLVRICAALNIPVGSLFESSAAGEVVRADNYPPISFGGERMAEFLLTPFGERRIQSLLSRIEPGGGSGSETYELPVDVAFVYVVSGRICISFNGPGAGEDVSLATGDAFTFSPQLPHSFRALGDDTATVLWILTPALPDDVRPTSR | not soluble |
| TPGVEKRVIWAPGGYERRTPYALVYLHGFSATSEEIRPVPDHIAQALGANLVFTRLQGHGRGDDAMAQGSASGWMRDTAEALAAGRAVGERVIVIATSTGATLAAAAALDPEMSADVAAMILVSPNFGVNDPLAFVPTLPGARYWLPRLMGDARDVTGPDADKNTYWTTRYSWSALVPMSVLVQAVVSLDFAQARVPALFWFSDQDRVVRADLTRALAGRWGGPVRVEAVTMGPGDDPSSHVIAGDIMSPGQTDIAVAGMLAWLREQGI | not soluble |
| MECFRSRIITIYLKRLKYSPLLWRNAKRGTRSSYMWLYVSICCGDFQFWKLSGTPSSPTCKTHSCGFIFWTNTHLLGDQLRYTIMDTIGMYLIIKQRLRNIHKNDPRLFQYVFENGHPLPYNR | not soluble |
| EVVRLGDVLELCQYGLSVPLKDKGKYPVIRMDEIVNGYVVTDIAKYADLDEETFKNFKLEKGDVLFNRTNSLELVGRTGIFLLDGYYVFASYLIRLRPKHEILHPHFLTFYLIFSQSRLKQLATVAVHQANINATNLKKFKIPLPPLPEQQKIAEILSTV | soluble |
| MLSQLREIVEKVSRVDDVHLALDILVKETCAALRTECCTIYLANEEMQRLELMATQGLIFEGDSIHINFNEGLVGLVKRSAEPLNLAEASKHPEFKFFPQLGEQVYHSFLATPIIHRKQVLGVLVIQQKTPRLFSEMEESFLVTLSAQLAVIIAHAQSLGHWQ | not soluble |
| GPGSMAIPPLRASDLSSPSPSIAPQRERTRSVGTRLRTSITRDDAERVLPASSSQVETLARDATTTCEQQLMQEEELCGPSYREVEGRRPSRALSPSGAGDTSGVEDGGRARGREYVEDSDDEDVYNSHVARRIRAFLDSIKAEDFTRNPSPVDVTGMAANGEGIDEEALRQQWLERATVDEARSIAAEAQRELLIVLHDAITLETDLAEMSEDAAVLERAVNHREETVEMLKMQLSIADEYNEELHGAKKEALRKLSDAKTEIALLSQRNATLSKQLHEKEKALQLSLARSASASARTSPPAAERRDEGTITTAELQSALIAATASTGLPNNGSLSTPSSPAQHGECELKGMLRKLQLVCDTLQSTVTAKADLDQQLRQWTMGVGESRADAAACGSASSDAGISQPHGERCAPTDAEQRLLRRRCEDVARCIDSLENDIRMLRAKVRAQQACTDAVEGGSAGRRRSAAEAEAATRPQPVETPGPASASATLPEGPGGSGGCAEPADSNLAFLQRQLDRAQADARRLESELRAEREKSQRQSAAEKKLLENVAYLTRKLRAREALDREARLQRRGEKGGTHGDGGDTADGRRTLLYPHRFSHGDSAGVRRGASTAAGDVCGEGAPTSALRRVNREADAVGMGAATAAARKGRANSQELRQRRESVFAALRDAQRASDERRSSHVVSDTRRSSDVQTSFSPILPTSSSRDAALKASGNAVKSGTRATTPTLTPSRG | not soluble |
| MGSDKIHHHHHHMAVECIKDKVTRYPERASYSDEDLVAMLDRNFTCTVSFIDGGIPYAIPMMLASEGKTIYLHGSMKSRIYGILKTGQLIAISLLEINGIVLAKEIKNNSINYVSALIFGRPYEIDDTEKKIEVFRLLTEKLVKGRRDNSIKPSYEDLNGVFVFAVKPETFSMKARTGPPHDTSTDDIWSGVLPIQHTISEAGENAPEYVKSLYGKRIFI | not soluble |
| RPKLTDGVQSGDVQGDRALVWSRTDRPARMIVEWDTRSVFSEPRRLVSPVTDERLDYTARIDLRGLPADQSIFYRVRFEDARDGSLSKPWFGHLRSAPSEARNIRFVWSGDTCGQGFGINPDIGGMRIYEAMRRRQPDFFLHSGDTIYADGPIPERIETESGRIWRNRVTEAKSKVAETLDEFRGNYRYNLLDDNLRRFNAEVPQIWQWDDHETTNNWSSSKQLDERYQVKDIDVLAARARQAFLEYAPLRFQRQGRDGRIYRKVAYGPLLDVFVLDMRSYRGGNSANLQARRSAATDFLGREQLQWLKRELRGSRAQWKVIAADMPIGLCVPDGKDAQGRDRWEAIANGNDGAALGRELEIADLLRFVQRAGVRNTVWLTADVHYCAAHHYSPERAAFKDFAPFWEFVAGPLNAGSFGPNALDGTFGPQVMFQKAPLVQNSSPFAGYQFFGEVEIDAQSRALTVTLRDLDGEPVFSQELQPD | not soluble |
| MSAHDRKEPAQRCPAALAAERLQIGLEHCGISADVHQGYGVSLVSVWTNLVVWTDGLAYRWWTGKISAKTGRRLYRVYAVDNPITVAHCVAQRYEELRKASHHSRGVVERTS | not soluble |
| SSTDQGTNPADTDDLTPTTLSLAGDFPKATEEQWEREVEKVLNRGRPPEKQLTFAECLKRLTVHTVDGIDIVPMYRPKDAPKKLGYPGVAPFTRGTTVRNGDMDAWDVRALHEDPDEKFTRKAILEGLERGVTSLLLRVDPDAIAPEHLDEVLSDVLLEMTKVEVFSRYDQGAAAEALVSVYERSDKPAKDLALNLGLDPIGFAALQGTEPDLTVLGDWVRRLAKFSPDSRAVTIDANIYHNAGAGDVAELAWALATGAEYVRALVEQGFTATEAFDTINFRVTATHDQFLTIARLRALREAWARIGEVFGVDEDKRGARQNAITSWRELTREDPYVNILRGSIATFSASVGGAESITTLPFTQALGLPEDDFPLRIARNTGIVLAEEVNIGRVNDPAGGSYYVESLTRSLADAAWKEFQEVEKLGGMSKAVMTEHVTKVLDACNAERAKRLANRKQPITAVSEFPMIGARSIETKPFPAAPARKGLAWHRDSEVFEQLMDRSTSVSERPKVFLACLGTRRDFGGREGFSSPVWHIAGIDTPQVEGGTTAEIVEAFKKSGAQVADLCSSAKVYAQQGLEVAKALKAAGAKALYLSGAFKEFGDDAAEAEKLIDGRLFMGMDVVDTLSSTLDILGVAK | soluble |
